Experimental data published in a protein production outcome set (Wang et al. 2014).

Experiment: label from the status in PepcDB records

Row | Sequence | protein production
1 | MSEADGLRQRRPLRPQVVTDDGQVPEVKEGSSFSGRVFRMTFLMLAVSLAIPLLGAMMLLESPIDPQSFSFKEPPFMFGVLHPNTKLRQAERLFENQLSGPESIVNIGDVLFTGTADGRVVKLENGEIETIARFGSGPCKTRDDEPTCGRPLGIRAGPNGTLFVVDAYKGLFEVNPQKRSVKLLLSSETPIEGKKMSFVNDLTVTRDGRKIYFTDSSSKWQRRDYLLLVMEATDDGRLLEYDTVTKEVKVLLDQLQFPNGVQLSPEEDFVLVAETTMARIRRVYVSGLMKGGADMFVENMPGFPDNIRPSSSGGYWVAAATIRANPGFSMLDFLSDKPFIKRMIFKMFSQETVMKFVPRYSLVLEVSDSGAFRRSLHDPDGQVVTYVSEAHEHDGYLYLGSFRSPFICRLSLQSI | failed
2 | MSIKAGFDDRALARVEAAIRADVESGIYDGAVIKVARHGQIALDATIGFSNRRAGAAMREDAVFKVLSLTKAFTTTLVLEAIDLGLLSLTTRVVDVIPEFWGRDLFRSGRKERVNVGHLLTHRAGLSPTPQPLPYDQLHNFSETIQAICALDVVGEPGKAFNYSPTVNHALLGEMVRRVHGAASLAELMDQRLFSRLGMSSTSLGPTSQIRDRLVPLTSDFPEGGWLTNADIKAVADAIEAPNSQMPWVGAMTSAQDVFVFAEMLREQGTVRDERILSPAVVRKATTLQTGDAINDLYKLLADARHWDLPAGNMGLGFALGGDGLTVSQFGTLTSPGTFGNFGAGSTLFWVDPESQITFVCLTAKVMEESENILRFQRLSDLVASAAL | failed
3 | MEGTVFTPCLEGMKHVKSDQGEMLTKPFLELCKTILPVIDKFGAAMTLVKSDIGGNITRLEKNYLSDPDKFKYLYTFVQVEIESKIAKGSSSCTNGLLWLTRAMDFLVELFRNLVAHQDWSMPQACADSYQKTLKKWHGWLASSTFSMALKLAPDRKKFMDVISGSGNIQADMERFCAEFGPFLHDNHKFLASVGMDDMKAS | not failed
4 | MPSPTVTSPQVAVNDIGSSEDFLAAIDKTIKYFNDGDIVEGTIVKVDRDEVLLDIGYKTEGVIPARELSIKHDVDPNEVVSVGDEVEALVLTKEDKEGRLILSKKRAQYERAWGTIEALKEKDEAVKGTVIEVVKGGLILDIGLRGFLPASLVEMRRVRDLQPYIGKEIEAKIIELDKNRNNVVLSRRAWLEQTQSEVRSEFLNNLQKGTIRKGVVSSIVNFGAFVDLGGVDGLVHVSELSWKHIDHPSEVVQVGDEVTVEVLDVDMDRERVSLSLKATQEDPWRHFARTHAIGQIVPGKVTKLVPFGAFVRVEEGIEGLVHISELAERHVEVPDQVVAVGDDAMVKVIDIDLERRRISLSLKQANEDYTEEFDPAKYGMADSYDEQGNYIFPEGFDAETNEWLEGFEKQRAEWEARYAEAERRHKMHTAQMEKFAAAETAGRGADDQSSASSAPSEKTAGGSLASDAQLAALREKLAGSALEHHHHHH | failed
5 | MRVAILGCGYVGCALARRLLAAGHDVVGVCRSPDSLDAVRETGATAVRADVTDAASLAAVPDADAVVFAASSGGRGADAAREVYVDGLRTVVEQFGGRDDPPEQLVYTSSTGVYGDHDGDWVDEETPLDPTTEKTAALVDAERVALTDASEHGLDPTVVRFAGLYGPDRYRLTRYLDGPVTEGYLNMIHRDDAAGVVAFALTDADADVLLAVDDDPVSKWAFADWLADEAGVPQPAKQTVAERIAAGDLSTPAERRLRTSKRCSNARLTELGYSFAHPTFRSGYQAAIRAHERGEYK | failed
6 | MTVKAVFFDIDGTLLNDRKNIQKTTQKAIQQLKKQGIMVGLATGRGPGFVQPFLENFGLDFAVTYNGQYILTRDKVLYQNQLPKSMIYKVIRYANEKKREISLGTASGLAGSRIIDMGTSPFGQVISSFVPKSWARTVEGSFKHLIRRIKPQSFRNLVTIMREPIYQVVLVASQAETKKIQEKFPHIKITRSSPYSLDLISVDQSKIKGIERLGEMFGFDLSEVMAFGDSDNDLEMLSGVGIGIAMGNAETVVKDGAHFTTDSNNNDGISKALAHYGLIH | failed
7 | MDSDETGFEHSGLWVSVLAGLLLGACQAHPIPDSSPLLQFGGQVRQRYLYTDDAQQTEAHLEIREDGTVGGAADQSPESLLQLKALKPGVIQILGVKTSRFLCQRPDGALYGSLHFDPEACSFRELLLEDGYNVYQSEAHGLPLHLPGNKSPHRDPAPRGPARFLPLPGLPPALPEPPGILAPQPPDVGSSDPLSMVGPSQGRSPSYAS | failed
8 | MTSPFHRLCRTTLAAGFLFGMASAALAVGDSNDDTNPPPKTETTKTCTGGKVWDKQRKECVTPKKNSFNDDDLYKFAREFAYAGQYENAITVLNLARNQNDPRILNYLGYANRKAGRMELGMSYYRKALQADENYILARSYMGMALVEQGDIQGARVQLVEIRDRGGEDTWAYRALLQSLNGYRTY | failed
9 | MIVGGRRAPLPRFFSRPVEFAALSLDPEKDPIDVFDDAYFFVHAAFSHVPGKYRGGEGDDPKSFHRLNLDGTVRLFEAAKRAGTRRCVFLSSRAAYGDYPPGIELVETMLPKPETLYGQIKLDAEGALTHLSAPGFAGVSLRATGVYGDLTPGKWDDLIADYLAGRPVAARAGTEVHGRDLGRAVRLMLETESTRISGEVFNISDITVDTQDILAPIRRETSGPHALPPPADKAALNPMSTAKIRALGWMPGGTPLFEETMRRLAAALPVSPRHRSAQDRQASSSGGRQPQTGTT | failed
10 | MMIKASTNEFRFCFKQMNKSQHELVLGWIHQPHINEWLHGDGLSNTIKDLHEFLNDGKPWATHWIAYDNEIPFAYLITSEIEKSEEYPDGAVTLDLFICRLDYIGKGLSVQMIHEFILSQFSDTKIVLINPEISNERAVHVYKKAGFEIIGEFIASWHPVPHYKMKLCIEDLKKQRLSA | not failed
11 | MFYITSKKVPFVTYSKNVFIPVTNICRNQCGYCGFRREPGQPGARLMKPEEVISVLENGVRAGCTEALFTFGERAEEVPGYGEMLEEIGYSSTLEYLVFLCETAIDIGILPHTNAGIMTRSELEALKPLNASMGLMLESTAVLAAHKDCPGKIPERRLETIREAGKLKIPYTTGLLIGIGESRDDRIESLEAIAALHREYGHIQEVIIQNFAPKPGTEMENFPEPAVEEMMDSVELAARILPGDVAVQVAPNLIDPKSLIAKGVTDLGGISPLTIDWINPEAEWPDVKNLQKKLGDIPLKERLPVYPPYVKKGWYSERIGSLIKRLEHHHHHH | failed
12 | MGHHHHHHSHMAPWRKADKERHGVAIYNFQGSGAPQLSLQIGDVVRIQETCGDWYRGYLIKHKMLQGIFPKSFIHIK | failed
13 | MSLTNDERILSWNETPSKPRYTPPPGAIDAHCHVFGPMAQFPFSPKAKYLPRDAGPDMLFALRDHLGFARNVIVQASCHGTDNAATLDAIARAQGKARGIAVVDPAIDEAELAALHEGGMRGIRFNFLKRLVDDAPKDKFLEVAGRLPAGWHVVIYFEADILEELRPFMDAIPVPIVIDHMGRPDVRQGPDGADMKAFRRLLDSREDIWFKATCPDRLDPAGPPWDDFARSVAPLVADYADRVIWGTDWPHPNMQDAIPDDGLVVDMIPRIAPTPELQHKMLVTNPMRLYWSEEMEGHHHHHH | not failed
14 | MDNKVSILNQPKPFKMIFFIELWERFGYYGLQGILAVYFVDKLGFSMQDSFVTFGAFAALVYGLVSVGGYVGDYVLGTKRTMVFGAVVLALGYFLMGFSILNPNFIYLALGAIAVGNGLFKANPSSLLAKCYEKGDSRLDGAFTLYYMSINIGSLVSLSISPVIANNYGYEYAFVICGLGLIASLFSYFSLRSTVQGIGSEPDALPLNKTKALIVLIGTVASTLVCAWLLQNIMMANLALGLIGVGVVGFFLKETFKETGEQRNKMIVAFILMLQAIIFYVLYAQMPTSLNFFAINNVHSELFGIDINPVSLQALNPFWVIFCSPILAYLYTYYGNQNKDLSMPGKFTVGMFMCAFGFLSVAAAGNWFADQAGMVSVWWMILVYLFQSLGELMISGLGLAMVASLVPQRLMGFTMGAWFLTQAASFIIGGYVATFSATPEHLTAPLDTLPVYTELFQNIGFVTLAVAIVMAFTAPKLNKMMTSSQPEDAELVEQP | failed
15 | MSGKSSPLSVLEYLAIFAIIMTWGINNAAAKVATAYLPPMTVGGLRFLAALVFLFPFIRPPFPEPKKLAAIVLLTGPIHFGLVYVGFGMGQSLSPLVVASQLWIPFTALVAWKLLGETMRLPAVLGLIVAFVGVAWMTLDPHTSGDLPAIVLIVLASACWAVATILVRMTPGAKPLKVQAVTALFAAPSLLAMSFAFETQVVERVMTAPPIAWACVIFAGVVSTIGASALLFWLVQRREAGRVTPYFLLTPLVSCTLGVAFLGDKLTPQLLIGGAATMVGVALVAMTEKRARAEEALAETA | failed
16 | SKDHTEFMVHLNNRIILRRWSIFKEFLHSEELKNTPASVEAELAVTAILEKLNQQIPPRPFQTHSSTTSAKQSTATIHNPQRTYCVGDQLNVLLVAKDYFGNRKEYGGDFLRARIFSPAMKAGTSGKVTDFNNGTYLVSFTLFWEGPVSLSILLMHPSEGVSALWRARNRGYGKIIFTGQFLNGTSPVLTECGLTLNTSAELCQYLDARDHEAFYCLKLPGVPCEALTHMTSKNSNISYLSLEEKLLFRRFNIGVEVVKNLSIVVSLCNNKTNKKKKKCQIGMETPSPGGYTLKGRWITAHCEQNEFRAIKDINNCLTRKLIYLMGDSTLRQWIYYLPKVVKTLKYFDRHGAGPFKTHILLDTERHIFVQWKKHSHPFVTNKLFSMKDDNYIPREIDQVAGDSGTAIVISFGQHFRPFPINVFIRRAINVKNAIERLFLRSPETKVIIKTENIREINEHVEIFSDFHGSIQNLIIRDIFRDLNVGIIDAWDMTVAYRSEDVHPPESVIESQIGMFLNYIC | failed
17 | MRTVVDYGAAIAFGVAYFVTKDFQKATWVLVAASAAALAIGYAVERRLAMLPLFFGGMALVFGTLGLIFGSDVFVKIKVTVINLALASFLVGGVLLKRQPLKVIMGEALHLPDAAWRTLTLRYGAYFAFVAIINEVVRNTQDTDTWVKFRLALLPVALVFVATQLPFMMKHMAKGDDAKAVEPPDAGF | failed
18 | MAAFTGTTDKCKACDKTVYVMDLMTLEGMPYHKSCFRCSHCNGTLVICNYSSMDGVLYCKTHFEQLFKESGNFSKNFQTAGKTEKSNDAAPNRLSSFFSGTQDKCAACKKTVYPLEKMTMEGESYHKTCFRCAHSGCPLTHSSYAALDGVLYCKVHFSQLFLEKGNYNHVLQAAANHRRSTAEEDKTEPKEDEANPTEEETSDAAAEEHES | failed
19 | INKIENYEQSTSQLREEINALYNQVIEVGQALSKQRRIVARELRDHIVSEIQNLQMKDANLEISFKKLEEPNIDGIEFVEFLISPNKGEPLKSLNKIASGGELSRIMLALKSIFVKSRGQTAILFDEVDSGVSGQAAQKMAEKMRDIAEYIQVICISHLPQVASMSDHHLLI | failed
20 | MEYILYISRFLYRIRWWLLIGTAIITFAVYYFGKRMIGKTYNVEATLYTGAASGYNLEGGNNKVDWATTQNAMDNLMNIIKAESTLKRVSIRLYARSLIKGNPKEDNEFIKASNYNRIYEHLKNSPNGKEILSLIDKNSEDKTVANFFNYLRPTQANYLYGVFYYNLPYYSYNDLRAIRVARKGASDLIEISYTASDPGIAYNTIDILTKEFVNEYSAIRYGETDKVIEYFKSELQRIGKELRLKEDSLTQYNVEKRVINYYDETKEIAAINKEFELREQNVLIAYNSAKAMLNELEKQMGSNAKHVINNLQFLDKLNEAASLTGKISEMETISSDHQNQEASLQEYKNRLNQTRKELSELSNKYVENKYTKEGIAKENIIEQWLEVTMQYEKAKSDLQIIQQSRIDLNEKYRQFAPVGSTIKRQERNITFIEQNYLSVLKSYNDALMRRKNLEMTSAALKVLNAPAYPISAMPTPLKKMVMAACAGTFLFILGFFLILELLDRTLRDSIRTRRLIGLPMLGAFPKDSILEYHNHVEESKSIATKQLSNSILRFCQQKKEGLPYIINFISTEGGEGKSYVIEALKKYWNSIGLKTKVITWKSDFRIDSREYNLAKSITDLYTSEEEDILIVEYPNLREASISLELLQEANLNILVARADRGWKETDKLLSEKLSQQVGKTPLYVYLTHASRNVVEDYTGMLPPYTLWRKIVYRLSQLALTESIFTFTKRKKQPATSGDEDDE | failed
21 | MDYNKTAKDILKLLGGEKNVMSAAHCATRLRLVLKNEKEARTKEIEKLDGVKGVFSSSGQYQIIIGQGSVNKVYKAFVEGTGISESSLSDTKKAAMKNM | not failed
